Earlier results on one substance are cited in article PMC3022668.

This data set addresses streptavidin (Streptomyces avidinii) (UniProt P22629).

streptavidin (Streptomyces avidinii), sequence (P22629 25-183): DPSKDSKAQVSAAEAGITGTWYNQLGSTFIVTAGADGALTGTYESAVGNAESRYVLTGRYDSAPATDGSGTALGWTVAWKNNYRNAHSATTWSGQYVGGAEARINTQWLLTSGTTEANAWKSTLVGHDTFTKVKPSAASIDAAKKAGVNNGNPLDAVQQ

On to streptavidin-binding peptide (SBP), for which the dissociation constant (Kd) is 2.5 nM.

By Kd is commonly meant the free concentration of one partner at which half of the binding sites on the other are occupied at equilibrium, for simple one-to-one binding.
